The test system of the assay is primary mouse OPs. The experiment in a line: Proliferation of oligodendrocyte precursor (OP) cultures, scoring NG2+ and NG2+/BrdU+ cells. Format: cell-based. Particulars: TLQP-21 3 μM, AQEE-30 3 μM, BDNF 50 ng/μl, analyzed 48 hours later, vs DMSO. The protocol: The growth factor VGF was of particular interest because it is reported to be highly expressed in OPs. Furthermore, its upregulation upon exercise activates the anti-depressant response in mammals, and maintains BDNF expression in a VGF-BDNF positive feedback loop. […] VGF is cleaved to produce numerous C-terminal bioactive peptides including TLQP-62, TLQP-21, and AQEE-30, amongst others. As such, oligodendrocyte precursor (OP) cultures were treated with well-characterized peptides that trigger BDNF production TLQP-21 (3 μM), AQEE-30 (3 μM), BDNF (50 ng/μl), or DMSO along with the proliferation marker BrdU and then analyzed 48 hours later by scoring the number of NG2+/BrdU+ cells. In parallel, the total number of NG2+ cells was counted to assess for endogenous proliferation. […] Indeed, VGF protein levels are robust early in the OP differentiation cascade (FIG. 11).
Mouse OPs were isolated from the cortices of PO WT neonates by expansion within mixed glial culture for 8 days, purified, and subsequently differentiated as an OP-enriched culture. At DIV1 post-purification, cells were treated with DMSO, BDNF, VGF AQEE-30 or VGF TLQP-21 at 3 uM and allowed to grow for an additional 48 hrs. […] DAPI stains all nuclei. […] Scale bar, […]. FIG. 10C depicts quantitation of the average dendritic length 48 hrs post-peptide treatment. **P<0.01, n=4 independent coverslips per condition. […]

B1: BDNF: brain-derived neurotrophic factor, comparison treatment in OP cultures (protein, UniProt P23560 19-247, looked up)
Neurotrophic factor BDNF …: APMKEANIRGQGGLAYPGVRTHGTLESVNGPKAGSRGLTSLADTFEHVIEELLDEDQKVRPNEENNKDADLYTSRVMLSSQVPLEPPLLFLLEEYKNYLDAANMSMRVRRHSDPARRGELSVCDSISEWVTAADKKTAVDMSGGTVTVLEKVPVSKGQLKQYFYETKCNPMGYTKEGCRGIDKRHWNSQCRTTQSYVRALTMDSKKRIGWRFIRIDTSCVCTLTIKRGR
With B1, the “total number of NG2+ cells” value is given as “no significant differences”. Moreover, the “total number of proliferating Ng2+/BrdU+ OPs” value (with BrdU) was “no significant differences”.

These data come from patent US20170028021A1, “COMPOSITIONS AND METHODS FOR TREATING NEURODEGENERATIVE DISEASE” (MYELIN THERAPEUTICS, INC., priority 2015, published 2017).
